Values of other authors, collected in PMC10249258.

Molecular target: CD155 (Homo sapiens) (UniProt P15151)

Kd: 2 nM
Substance: TIGIT (from UniProt Q495A1)
